Measured values taken from publication PMC9871250, “Identification of an indole biodegradation gene cluster from Providencia rettgeri and its contribution in selectively biosynthesizing Tyrian purple” (Frontiers in Bioengineering and Biotechnology, 2023).

Key:
[1] = substrate: Brc1ccc2cc[nH]c2c1; assay: Tyrian purple formation by LC-MS; type: biochemical, Methylophaga thalassica; conditions: pH 7.5, 30 °C, 250 μM NADH, 0.6% glucose with GDH recycling, unit μm [sic], meant μM, table title says NADH oxidation, methods say indigo/Tyrian purple formation
From the text: Tyrian purple formation by LC-MS on MaFMO

[2] = substrate: c1ccc2[nH]ccc2c1; assay: indigo formation by LC-MS; type: biochemical, Methylophaga thalassica; conditions: pH 7.5, 30 °C, 250 μM NADH, 0.6% glucose with GDH recycling, unit μm [sic], meant μM, table title says NADH oxidation, methods say indigo/Tyrian purple formation
From the text: indigo formation by LC-MS on MaFMO

B1: MaFMO (Methylophaga thalassica) (protein)
chain: MATRIAILGAGPSGMAQLRAFQSAQEKGAEIPELVCFEKQADWGGQWNYTWRTGLDENGEPVHSSMYRYLWSNGPKECLEFADYTFDEHFGKPIASYPPREVLWDYIKGRVEKAGVRKYIRFNTAVRHVEFNEDSQTFTVTVQDHTTDTIYSEEFDYVVCCTGHFSTPYVPEFEGFEKFGGRILHAHDFRDALEFKDKTVLLVGSSYSAEDIGSQCYKYGAKKLISCYRTAPMGYKWPENWDERPNLVRVDTENAYFADGSSEKVDAIILCTGYIHHFPFLNDDLRLVTNNRLWPLNLYKGVVWEDNPKFFYIGMQDQWYSFNMFDAQAWYARDVIMGRLPLPSKEEMKADSMAWREKELTLVTAEEMYTYQGDYIQNLIDMTDYPSFDIPATNKTFLEWKHHKKENIMTFRDHSYRSLMTGTMAPKHHTPWIDALDDSLEAYLSDKSEIPVAKEA
notes: synthesized gene, His-tag, E. coli BL21(DE3), Ni-NTA; primers give start MATRIAI, end VAKEA
[1]
  Km: 303.65 µM
  kcat: 0.000521 s⁻¹
  kcat/Km: 1.67 M⁻¹ s⁻¹
[2]
  Km: 242.2 µM
  kcat: 0.000246 s⁻¹
  kcat/Km: 1 M⁻¹ s⁻¹
